From patent US7205387B2, “Recombinant polypeptide useful for neurotrophin receptor mediated gene delivery and as neurotrophin agonist” (Agency for Science, Technology and Research, priority 2003, dated 2007)

Tested on: plasmid DNA
Experiment: DNA retardation assay (agarose gel electrophoresis)
Type: binding
Description: This assay qualitatively assesses the ability of a polypeptide or polycation to bind to DNA and thus to retard its migration (by decreasing its charge/mass ratio) through an agarose gel under electrophoresis. For a range of N/P ratios, polypeptide was added to 0.1 μg of plasmid DNA made up to 20 μl with either HEPES-buffered saline (HBS, 150 mM NaCl, 29 mM HEPES, pH 7.3) or 5% glucose. The mixtures were vortexed and incubated at room temperature for 30 minutes before being subjected to electrophoresis in a 0.8–1.0% Tris-borate-EDTA agarose gel stained with ethidium bromide for visualization under ultraviolet light.

B1: SPKR4NL1-2: chimeric protein: (SPKR)4 DNA-binding domain, α-helical linker, targeting domain with loops 1 and 2 of NGF (aa 17–67), His10 tag (protein)
chain: MGHHHHHHHHHHSSGHIEGRHMSPKRSPKRSPKRSPKRGGTYLSEDELKAAEAAFKRHNPTGSCSVSVWVGDKTTATDIKGKEVMVLGEVNINNSVFKQYFFETKCRDPNPVDSG
modifications: SPKR4NL1-2
  DNA binding / retardation of DNA migration (in words): reduced the mobility of DNA
